From the nanobody polyreactivity screen of Harvey et al. (2022)

Assay: yeast display, Sf9 membrane polyspecificity reagent, FACS + sequencing; frameworks hold sequencing errors
Summary of the method: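 Using colony PCR, genes from sorted yeast display clones were amplified, then sequenced on MiSeq at 2 × 250 and filtered by CDR length. The clones had been stained with 10% biotinylated, detergent-solubilized Sf9 membrane reagent for 1 hour at 4 °C and sorted by FACS into low and high (top ~1%) gates on anti-HA and streptavidin fluorescence. Polyreactivity labels come from the gate of origin.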

Sequence | polyreactivity (PSR sort gate)
QVQLVESGGGLVQAGGSLRLSCAASGRIFRGYTMGWYRQAPGKERELVAAISRSTGSTNYADSVKGRFTISRDNAKNTVYLQMNSLKPEDTAVYYCAATVSPSYDYWGQGTQVTVSS | high polyreactivity
QVQLVESGGGLVQAGGSLRLSCAASGRIFRINAMGWYRQAPGKEMELVASSSRRGGNTYYADSVKGRFTISRDNAKNTVYLQMNSLKPEDTAVYYCAADTNQERTFDYWGQGTQVTVSS | low polyreactivity
QVQLVESGGGLVQAGGSLRLSCAASGRIFRINAMGWYRQAPGKERELVASISRRGGNTYYADSVKGRFTISRDNAKNTVYLQMNSLKPEDTAVYYCAADTNLERTFDYWGQGTQVTVSS | low polyreactivity
QVQLVESGGGLVQAGGSLRLSCAASGRIFRINAMGWYRQAPGKERELVASISRRGGNTYYADSVKGRFTISRDNAKNTVYLQMNSLKPEDTAVYYCAADTNQERTFDYWGQGTQVTVSS | low polyreactivity
QVQLVESGGGLVQAGGSLRLSCAASGRIFRIYAMGWYRQAPGKERELVAAISWSGGRTYYADSVKGRFTISRDNAKNTVYLQMNSLIREDTAVYYCNADSYSRRGFEYDYWGQGTQVTVSS | high polyreactivity
QVQLVESGGGLVQAGGSLRLSCAASGRIFRIYAMGWYRQAPGKERELVARITYSGGSTYYADSVKGRFTISRDNAKNTVYLQMNSLKPEDTAVYYCNAYFIYEGGWYYKAQYDYWGQGTQVTVSS | low polyreactivity
QVQLVESGGGLVQAGGSLRLSCAASGRIFRIYTMGWYRQAPGKERELVAAITKSGGSTSYADSVKGRFTISRDNAKNTVYLQMNSLKPEDTAVYYCNAKGWSRPPGYDYWGQGTQLTVSS | high polyreactivity
QVQLVESGGGLVQAGGSLRLSCAASGRIFRKNAMGWYRQAPGKERELVAAITSSGNTYYADSVKGRFTISRDNAKNTVYFQMNSLKPEDTAVYYCAARLKWLNRYGYDYWGQGTQVTVSS | low polyreactivity
QVQLVESGGGLVQAGGSLRLSCAASGRIFRKYAMGWYRQAPGKERELVAAISGSGGSTYYADSVKGRFTISRDNAKNTVYLQMNSLKPEDTAVYYCAASAGRYSSTLGYYWGQGTQVTVSS | high polyreactivity
QVQLVESGGGLVQAGGSLRLSCAASGRIFRKYTKGWYRQAPGKERELVAAITGTGGSTYYADSVKGRFTISRDNAKNTVYLQMNSLKPEDTAVYYCAADYSARYGFWGLGTQVTVSS | high polyreactivity
QVQLVESGGGLVQAGGSLRLSCAASGRIFRKYTMGWYRQAPGKERELVAAISRNGGDTYYADSVKGRFTISRDNAKNTVYLQMHSLKPEDPAVYYCNARTPPDSTHFAYWGQGTQVTVSS | low polyreactivity
QVQLVESGGGLVQAGGSLRLSCAASGRIFRLYAMGWYRQAPGKERELVATITDVGSTYYADSVKGRFTISRDNAKNTVYLQMNSLKPEDTAVYYCAAESYYTSYWKYYYWGQGTQVTVSS | high polyreactivity
QVQLVESGGGLVQAGGSLRLSCAASGRIFRPYAMGWYRQAPGKERELVAGITSSGGSTYYADSVEGRFTISRDNAKNTVYLQMNSLKPEDTAVYYCAAVHGLFRPLHYYWGQGTQVTVSS | low polyreactivity
QVQLVESGGGLVQAGGSLRLSCAASGRIFRPYAMGWYRQAPGKERELVAGITSSGGSTYYADSVKGRYTISRDNAKNTVYLQMNSLKPEDTAVYYCAAVHGLFRPLHYYWGQGTQVTVSS | low polyreactivity
QVQLVESGGGLVQAGGSLRLSCAASGRIFRPYAMGWYRQAPGKERELVASINYSGGSTYADSVKGRFTISRDNAKNTVYLQMNSLKPEDTAVYYCNVYRDGFRYTAWYTGQTFDYWGQGTQVTVSS | low polyreactivity
QVQLVESGGGLVQAGGSLRLSCAASGRIFRQNAMGWYRQAPGKERELVAAISRSGGSTYYADSVKGRFTISRDNAKNTVYLQMNSLKPEDTAVYYCAADVHTPALYTYAAGDYWGQGTQVTVSS | low polyreactivity
QVQLVESGGGLVQAGGSLRLSCAASGRIFRRNVMGWYRQAPGKEREMLAAIRGTGSTTYADSVKGRFTISRDNEKNTVYLQMNSLKPEDTAVYYCAAVQQGNHGFRYYYWGQGTQVTVSS | high polyreactivity
QVQLVESGGGLVQAGGSLRLSCAASGRIFRRYALGWYRQAPGKERELGAAITRSGGSTYYADSVKGRFTISRDNAKNTVYLQMNSLNPEDTAVYYCYAPSSLGTDYDYWGQGTQVTVSS | high polyreactivity
QVQLVESGGGLVQAGGSLRLSCAASGRIFRRYAMGWYRQAPGKEREFVAAISYGGGSTYYADSVKGRFTISRDNAKYTVSLQMNSLTPEDTAVYYCNADVPKSLLLYYPWGYGYWGQGTQVTVSS | low polyreactivity
QVQLVESGGGLVQAGGSLRLSCAASGRIFRRYAMGWYRQAPGKERELVAAISSGGSTYYADSVKGRFTISRDNEKNTVYLQLNSLKPEDSAVYYCNAKVGAYLNYGYWGQGTQVTVSS | low polyreactivity
QVQLVESGGGLVQAGGSLRLSCAASGRIFRRYAMGWYRQAPGKERELVAAISTSGGSTYYADSVKGRFTISRDNAKNTVYLQMNSLKPEDTAVYYCNVYKPPTRGGVLQYGYWGQGTQVTVSS | low polyreactivity
QVQLVESGGGLVQAGGSLRLSCAASGRIFRRYAMGWYRQAPGKERELVAVISRGGSTHYADSVKGRFTISRDNAKNTVYLQMNSLKPEDTAVYYCNAVVSVYTKDLDYWGQGTQVTVSS | high polyreactivity

Sequence | polyreactivity (PSR sort gate)
QVQLVESGGGLVQAGGSLRLSCAASGRIFRRYAMGWYRQAPGTETELVAAISSGASTYYADSVKGRFTISRDNAKNTVYLQMNSLKPEDTAVYYCAVDRPYYYGYRMDYWGQGTQVTVSS | low polyreactivity
QVQLVESGGGLVQAGGSLRLSCAASGRIFRSNAMGWYRQAPGKERELVAAITWSGGSTYYADSVKGRFTISRDNAKNTVYLQMNSLKPEDTAVYYCAADGYTAYLPYYWFDYWGQGTQVTVSS | high polyreactivity
QVQLVESGGGLVQAGGSLRLSCAASGRIFRSNSMGWYRQAPGKERELVATITRSGGSTYYADSGKGRFSISRDNAKNTVYVQKNSLKPEDTAVYYCNAVFGSAYRAQRIMGYWGQGTQVTVSS | low polyreactivity
QVQLVESGGGLVQAGGSLRLSCAASGRIFRTYAMGWYRQAPGKERELVAAINSVDRTYYADSVKGRFTISRDNAKNTVYLQMNSLKPEDTAVYYCAATIAPTPGYIIYDYWGQGTQVTVSS | high polyreactivity
QVQLVESGGGLVQAGGSLRLSCAASGRIFRVYAMGWYRQAPGKERELVAAISGRGGSTTYADSVKGRFTISRDNAKNTVYLLMNSLKPEDTAVYYCAAGYRVDYWGQGTQVTVSS | low polyreactivity
QVQLVESGGGLVQAGGSLRLSCAASGRIFRVYAMGWYRQAPGKERELVAAISSGGSTNYADSVKGRFTISRDNANNTVYLQMNSLKPEDTAVYYCAATVRGVGYRYYYWGQGTQVTVSS | high polyreactivity
QVQLVESGGGLVQAGGSLRLSCAASGRIFRVYTMGWYRQAPGKERQLVATISYRGGSTYYADSVKGRFTISRDNAKNTVFLQMNSLTPDDNAVYNCAARLPADPGKTPGTLRTLDYWGQGTQVTVSS | high polyreactivity
QVQLVESGGGLVQAGGSLRLSCAASGRIFRWNAMGWYRQAPGKERELVASITGGDITNYADSVKGRFTISRDNAKNTVYLQMNSLKPEDTAVYYCAARGYGRGRPVASYGYDYWGQGTQVTVSS | low polyreactivity
QVQLVESGGGLVQAGGSLRLSCAASGRIFRWYAMGWYRQAPGKERELVAAISRSGTSTYYADSVKGRFTISRDNAKNTVYLQMNSLKPEDTAVYYCAADAVIFGMDYWGQGTQVTVSS | low polyreactivity
QVQLVESGGGLVQAGGSLRLSCAASGRIFRWYAMGWYRQAPGKERELVATISSTGGSTYYADSVKGRFTISRDNAKNTVYLQMNSLKPEDTAVYYCNALSFITITVYSEGDYWGQGTQVTVSS | low polyreactivity
QVQLVESGGGLVQAGGSLRLSCAASGRIFRYNAMGWYRQAPGKERELVAAISWTVGRTYYADSVKGRFTISRDNAKNTVYLQMNSLKPEDTAVYYCATYFRVWYRSYDYWGQGTQVTVSS | high polyreactivity
QVQLVESGGGLVQAGGSLRLSCAASGRIFRYNAMGWYRQAPGKERELVAAITRSGGSTYYADSVKGRFTISRDNAKNTVYLQMNSLKPEDTAVYYCAKVQNGQWSTSRVPGDYQYNYWGQGTQVTVSS | high polyreactivity
QVQLVESGGGLVQAGGSLRLSCAASGRIFRYNAMGWYRQAPGKERELVAAITWRGGSTYYADSVKGRFTISRDNAKNTVYLQMNSLKPEDTAVYYCNKVYSLTFEYDYWGQGTQVTVSS | high polyreactivity
QVQLVESGGGLVQAGGSLRLSCAASGRIFRYNAMVWNIQAPGKERELDAAISYRGTRTYYADSVKGRFTISRDNAKNTVYLQMNSLKPEDTAVYYCAKDSGYYTADDYDYWGQVTQVTVSS | low polyreactivity
QVQLVESGGGLVQAGGSLRLSCAASGRIFRYNTIGWYRQAPGKERELVADITSSDSSTNYADSVKGRFTISRDTAKNTVYLQMNSLKPEDTAVYYCNAVIYFKFDWGQGTQVTVSS | low polyreactivity
QVQLVESGGGLVQAGGSLRLSCAASGRIFRYNTMGWYRQAPGKERELVAAINSSGGRTYYADSVKGRFTISRDNAKNTVYLQMNSLKPEDTSVYYCAAVIYVLSGPGYDYWGQGTQVTVSS | high polyreactivity
QVQLVESGGGLVQAGGSLRLSCAASGRIFRYNTMGWYRQAPGKERELVASITYRGGSTYYADSVKGRFTISRDNAKNTVYLQMNSLKPEDTAVYYCAASPARYWYGGKEYDYWGQGTQVTVSS | high polyreactivity
QVQLVESGGGLVQAGGSLRLSCAASGRIFRYYAIGWYRQAPGKERELVAAISKSGGGTFYADSVKGRFTISRDNAKNTVYLQMNSLKPEDTAVYYCAARDKGLGKHDYWGQGTQVTVSS | low polyreactivity
QVQLVESGGGLVQAGGSLRLSCAASGRIFRYYAMGWYGQAPGKEREFVAAINSSGVNTYYADSVKGRFTISRDNAKNTVYLQMNSLKPEDTAVYYCAFLGMDYWGQGTQVTVSS | high polyreactivity
QVQLVESGGGLVQAGGSLRLSCAASGRIFRYYAMGWYRPAPGKERELVAGISSRGGSTYYADSVKGRFTISRDNAKNTVYLQMNSLKPEDTAVYYCAASPFHTVTPYGVVGRYDYWGQGTQVTVSS | high polyreactivity
QVQLVESGGGLVQAGGSLRLSCAASGRIFRYYAMGWYRQAPGKDRELVAAIRSASSTYYADSVKGRFTISRDNAKNTVYVQMNSLKPEDTAVSYCAARLYGVYKRRYYYWGQGTQVTVSS | high polyreactivity
